Results taken from PMC3784471 (PLoS Pathogens, 2013).
Ends that are not written are not given here.

Biological target: T1, Hendra virus nucleoprotein C-terminal domain N_(TAIL) (residues 401-532) (Hendra virus, UniProt O89339 401-532)
T1 sequence: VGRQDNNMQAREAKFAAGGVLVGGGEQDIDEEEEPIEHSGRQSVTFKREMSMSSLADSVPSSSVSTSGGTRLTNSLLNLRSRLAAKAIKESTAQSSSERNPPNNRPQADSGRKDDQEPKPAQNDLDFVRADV
Test: NMR titration; […]) ([…]); 298 K; […], pH 6.0
Conditions: both partners purified

B1: Hendra virus phosphoprotein X domain (XD, residues 654-707), 13C,15N labeled, without hexahistidine tag (domain or fragment)
chain: ADDASKDVVRTMIRTHIKDRELRSELMDYLNRAETDEEVQEVANTVNDIIDGNI
modifications: also: 13C,15N labeled
B1: binds.
